The results in this text go back to paper PMC3271731 (Nature, 2011).

The stoichiometry N is a count of units in the complex or per binding partner.

Where two headings read alike, the source gives them in different places.

Data set [1] deals with the molecule itself. In words: crystal structure.
Data set [2] deals with the molecule itself. In words: crystal structure. This is another data set of the same source.

B1: Pseudomonas aeruginosa 3-methylcrotonyl-CoA carboxylase β subunit (enzyme, UniProt Q9I297 1-535, looked up)
chain: MAILHTQINPRSAEFAANAATMLEQVNALRTLLGRIHEGGGSAAQARHSARGKLLVRERINRLLDPGSPFLELSALAAHEVYGEEVAAAGIVAGIGRVEGVECMIVGNDATVKGGTYYPLTVKKHLRAQAIALENRLPCIYLVDSGGANLPRQDEVFPDREHFGRIFFNQANMSARGIPQIAVVMGSCTAGGAYVPAMSDETVMVREQATIFLAGPPLVKAATGEVVSAEELGGADVHCKVSGVADHYAEDDDHALAIARRCVANLNWRKQGQLQCRAPRAPLYPAEELYGVIPADSKQPYDVREVIARLVDGSEFDEFKALFGTTLVCGFAHLHGYPIAILANNGILFAEAAQKGAHFIELACQRGIPLLFLQNITGFMVGQKYEAGGIAKHGAKLVTAVACARVPKFTVLIGGSFGAGNYGMCGRAYDPRFLWMWPNARIGVMGGEQAAGVLAQVKREQAERAGQQLGVEEEAKIKAPILEQYEHQGHPYYSSARLWDDGVIDPAQTREVLALALSAALNAPIEPTAFGVFRM
B1: the “stoichiometry N” value in the data set “crystal structure [1]” was 6.

B2: Pseudomonas aeruginosa 3-methylcrotonyl-CoA carboxylase α subunit (enzyme)
chain: MNPDYRSIQRLLVANRGEIACRVMRSARALGIGSVAVHSDIDRHARHVAEADIAVDLGGAKPADSYLRGDRIIAAALASGAQAIHPGYGFLSENADFARACEEAGLLFLGPPAAAIDAMGSKSAAKALMEEAGVPLVPGYHGEAQDLETFRREAGRIGYPVLLKAAAGGGGKGMKVVEREAELAEALSSAQREAKAAFGDARMLVEKYLLKPRHVEIQVFADRHGHCLYLNERDCSIQRRHQKVVEEAPAPGLGAELRRAMGEAAVRAAQAIGYVGAGTVEFLLDERGQFFFMEMNTRLQVEHPVTEAITGLDLVAWQIRVARGEALPLTQEQVPLNGHAIEVRLYAEDPEGDFLPASGRLMLYREAAAGPGRRVDSGVREGDEVSPFYDPMLAKLIAWGETREEARQRLLAMLAETSVGGLRTNLAFLRRILGHPAFAAAELDTGFIARHQDDLLPAPQALPEHFWQAAAEAWLQSEPGHRRDDDPHSPWSRNDGWRSALARESDLMLRCRDERRCVRLRHASPSQYRLDGDDLVSRVDGVTRRSAALRRGRQLFLEWEGELLAIEAVDPIAEAEAAHAHQGGLSAPMNGSIVRVLVEPGQTVEAGATLVVLEAMKMEHSIRAPHAGVVKALYCSEGELVEEGTPLVELDENQA
modifications: biotinylated Lys681 (numbered by the equivalent residue of HsMCC)
For B2, the “stoichiometry N” value in “crystal structure [2]” worked out at 3.
